No end group written: not given here.
B1: human amylin synthetic peptide (AS-60254-1, Anaspec) (peptide)
peptide: KCNTATCATQRLANFLVHSSNNFGAILSSTNVGSNTY
modifications: ends and bridges not checked; cysteine pairing not given here
notes: The same id is used for human amylin in human brain sections and in HIP rat pancreas; also called islet amyloid polypeptide; IAPP
B2: rat amylin (peptide, UniProt P12969 38-74, looked up)
peptide: KCNTATCATQRLANFLVRSSNNLGPVLPPTNVGSNTY
notes: also called rodent amylin; non-amyloidogenic rat amylin

Legend:
[1] = target: T1, Aβ40 synthetic peptide (AS-24235, Anaspec) (human, UniProt P05067 672-711); test: amylin-Aβ sandwich ELISA on co-incubated peptides, human amylin against rat amylin
T1 construct: domain: Aβ40; also called human Aβ40
Protocol: The reaction was stopped by adding 50 μL of stop solution (N600, Thermo Scientific) after developing the signals, the plate was read at 450 nm in a spectrophotometer. Amylin-Aβ concentrations were calculated by generating a graph between relative optical density (O.D.) 450 of standards vs standard concentrations, after subtracting the optical density of standard blank and sample blank from the optical density of standards and samples respectively.
Amylin-Aβ aggregates were prepared using the procedure described by O'Nuallain et al. Briefly, 30 μM human amylin synthetic peptide (AS-60254-1, Anaspec) was incubated in PBSA (PBS+0.05% sodium azide) in a water bath at 37° C. for 5 hrs. Aβ₄₀ synthetic peptide (16.2 μM) (AS-24235, Anaspec) was preincubated at 37° C. for 2 hrs. […]
Specificity of amylin-Aβ sandwich ELISA was confirmed using a solution phase amylin-Aβ aggregation assay described in O'Nuallain et al. Synthetic human amylin and Aβ₄₀ peptides were incubated for promoting the amylin-Aβ aggregation and subjected to the amylin-Aβ sandwich ELISA. […] A robust amylin-Aβ immuno-reactivity signal was detected in co-aggregated amylin-Aβ solution, but not in the homogenous amylin and Aβ solutions (FIG. 2A). The aggregated amylin-Aβ solution was assayed for biochemical characteristics of amyloid by measuring the Thioflavin-T (Th-T) fluorescence signal intensity. […]

[2] = target: T1, Aβ40 synthetic peptide (AS-24235, …); test: time course (0 to 24 hours) of sandwich ELISA signal of human amylin incubated with Aβ40, in parallel with Th-T fluorescence
[3] = target: T1, Aβ40 synthetic peptide (AS-24235, …); test: amylin-Aβ sandwich ELISA on co-incubated peptides

T1 sequence (P05067 672-711 limits assumed): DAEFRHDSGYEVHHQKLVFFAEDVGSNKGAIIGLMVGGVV

Binder | fold amylin-Aβ ELISA signal intensity against rat amylin-Aβ co-aggregation [1] [fold] | fold increase of signal intensity from the baseline [2] [fold] | binding result [3]
B1 | ~7 | 3 | 
B2 |  |  | binds

Source: patent US20250306040A1 (UNIVERSITY OF KENTUCKY RESEARCH FOUNDATION, published 2025)
